B1: Bcl-2-like protein 11 (Mus musculus), O54918-1 (parent)
chain: MAKQPSDVSSECDREGGQLQPAERPPQLRPGAPTSLQTEPQGNPDGEGDRCPHGSPQGPLAPPASPGPFATRSPLFIFVRRSSLLSRSSSGYFSFDTDRSPAPMSCDKSTQTPSPPCQAFNHYLSAMASIRQSQEEPEDLRPEIRIAQELRRIGDEFNETYTRRVFANDYREAEDHPQMVILQLLRFIFRLVWRRH
B2: Bcl-2-like protein 11 (Mus musculus), O54918-1 (parent)
chain: B1 chain
partner: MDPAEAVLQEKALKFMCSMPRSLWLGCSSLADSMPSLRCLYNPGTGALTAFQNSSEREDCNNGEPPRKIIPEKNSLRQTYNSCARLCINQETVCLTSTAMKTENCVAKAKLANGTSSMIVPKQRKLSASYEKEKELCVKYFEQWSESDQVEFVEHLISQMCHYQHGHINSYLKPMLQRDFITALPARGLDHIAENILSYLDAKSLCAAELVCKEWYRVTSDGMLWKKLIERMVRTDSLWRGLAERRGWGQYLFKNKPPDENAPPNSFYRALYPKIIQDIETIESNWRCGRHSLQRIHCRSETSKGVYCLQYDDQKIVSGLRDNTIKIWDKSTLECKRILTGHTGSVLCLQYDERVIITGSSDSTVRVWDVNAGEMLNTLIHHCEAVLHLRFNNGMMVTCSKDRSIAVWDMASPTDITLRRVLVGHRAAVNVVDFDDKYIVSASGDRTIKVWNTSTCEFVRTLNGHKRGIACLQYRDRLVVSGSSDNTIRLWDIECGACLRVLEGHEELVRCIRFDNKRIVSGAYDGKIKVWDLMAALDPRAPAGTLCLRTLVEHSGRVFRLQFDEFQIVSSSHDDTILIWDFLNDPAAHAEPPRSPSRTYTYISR

Variants of: B1
Conditions: with kapca_human PRKACA

effect of a mutation on the interaction	Variant
disrupting interaction	S83A

Variants of: B2
Conditions: with fbw1a_mouse Btrc

effect of a mutation on the interaction	Variant
increasing interaction	S83A

Reference: IntAct's records for PubMed 21151042
